Laboratory results reported in patent US20180243665A1.

Key:
[1] = target: monoclonal IgG antibody in clarified CHO cell supernatant; assay: affinity chromatography, 3-column PCC, 1.5 g/L mAb feed, 45% breakthrough, 0.5 min residence time
[2] = target: monoclonal IgG antibody in clarified CHO cell supernatant; assay: affinity chromatography, 3-column PCC, undiluted supernatant feed, 2.5 min residence time, column switch at 5% breakthrough

- dynamic capacity [1]: 43 g/L
- dynamic binding capacity [2]: 54 g/L
Substance: SpA variant ligands (tetramers of Zvar), covalently coupled via a C-terminal cysteine to crosslinked agarose beads (designed binder)
